Patent US20030235857A1 (WHITEHEAD INSTITUTE FOR BIOMEDICAL RESEARCH A DELAWARE, published 2003)

B1: Tpk3 fused to the Gal4 DNA binding domain (enzyme, UniProt P04386 1-147, looked up)
chain: MKLLSSIEQACDICRLKKLKCSKEKPKCAKCLKNNWECRYSPKTKRSPLTRAHLTEVESRLERLEQLFLLIFPREDLDMILKMDSLQDIKALLTGLFVQDNVNKDAVTDRLASVETDMPLTLRQHRISATSSSEESSNKGQRQLTVSMYVDPMNNNEIRKLSITAKTETTPDNVGQDIPVNAHSVHEECSSNTPVEINGRNSGKLKEEASAGICLVKKPMLQYRDTSGKYSLSDFQILRTLGTGSFGRVHLIRSNHNGRFYALKTLKKHTIVKLKQVEHTNDERRMLSIVSHPFIIRMWGTFQDSQQVFMVMDYIEGGELFSLLRKSQRFPNPVAKFYAAEVCLALEYLHSKDIIYRDLKPENILLDKNGHIKITDFGFAKYVPDVTYTLCGTPDYIAPEVVSTKPYNKSVDWWSFGVLIYEMLAGYTPFYNSNTMKTYENILNAELKFPPFFHPDAQDLLKKLITRDLSERLGNLQNGSEDVKNHPWFNEVIWEKLLARYIETPYEPPIQQGQGDTSQFDRYPEEEFNYGIQGEDPYMDLMKEF
notes: Two-hybrid bait used for retesting positive clones; also called YKL166c
B2: Tpk1 fused to the Gal4 DNA binding domain (enzyme, UniProt P04386 1-147, looked up)
chain: MKLLSSIEQACDICRLKKLKCSKEKPKCAKCLKNNWECRYSPKTKRSPLTRAHLTEVESRLERLEQLFLLIFPREDLDMILKMDSLQDIKALLTGLFVQDNVNKDAVTDRLASVETDMPLTLRQHRISATSSSEESSNKGQRQLTVSMSTEEQNGGGQKSLDDRQGEESQKGETSERETTATESGNESKSVEKEGGETQEKPKQPHVTYYNEEQYKQFIAQARVTSGKYSLQDFQILRTLGTGSFGRVHLIRSRHNGRYYAMKVLKKEIVVRLKQVEHTNDERLMLSIVTHPFIIRMWGTFQDAQQIFMIMDYIEGGELFSLLRKSQRFPNPVAKFYAAEVCLALEYLHSKDIIYRDLKPENILLDKNGHIKITDFGFAKYVPDVTYTLCGTPDYIAPEVVSTKPYNKSIDWWSFGILIYEMLAGYTPFYDSNTMKTYEKILNAELRFPPFFNEDVKDLLSRLITRDLSQRLGNLQNGTEDVKNHPWFKEVVWEKLLSRNIETPYEPPIQQGQGDTSQFDKYPEEDINYGVQGEDPYADLFRDF
notes: Two-hybrid bait used for retesting positive clones
B3: Mga1 fused to the Gal4 activation domain (other, Saccharomyces cerevisiae, UniProt P53050 1-456, looked up, not shown: large carriers)
chain: MQPKTFVHQLHAILLEPEVNKWIYWSPTDNTVFFLKPYDPNFSTHVLKRYFKHGNVNSFVRQLHMYGFHKLSHPSPDQSSANNGNVKELVEWKFTHPSGFFFKEANAGILNKIQRKSTGVGKDGKRKNILSPISVSYVDASRLNVLSQQSGPVSAREPSNMFMGSPVHYSTSQSPPHISIPQQQQSSGPYLISSLPPQQPTVNMMRRQSISARMMNSYDYPNQFSTQDSIVQPQQPQQVLSPQALSGPPMKKSGTLSSTDDLKTTSLPIVNYPMPYHPGAFAQQQQQQQQPLPTVPPYSSYSTPFPSMMNSLSNSASNSPALGVCNNNVTLPKKSNISERQALDNHIQTLKNSLSTITDLIEKHINSASQDENKTLTNDAMNKDLRTSLSLLQNSKEEIIQLESKWMSMQSVKTTALPLQETTNTSSTLTSLTSSIIPKSIPIITKGEVATKPASY
notes: also called YGR249w

Assays:
Test in all cases: yeast two-hybrid, GAL4-ADE2 reporter, growth without adenine
[1] = biological target: T1, Sfl1 fused to the Gal4 activation domain (Saccharomyces cerevisiae, UniProt P20134 1-766, limits assumed)
T1 construct: also called YOR140w
T1 sequence (looked up): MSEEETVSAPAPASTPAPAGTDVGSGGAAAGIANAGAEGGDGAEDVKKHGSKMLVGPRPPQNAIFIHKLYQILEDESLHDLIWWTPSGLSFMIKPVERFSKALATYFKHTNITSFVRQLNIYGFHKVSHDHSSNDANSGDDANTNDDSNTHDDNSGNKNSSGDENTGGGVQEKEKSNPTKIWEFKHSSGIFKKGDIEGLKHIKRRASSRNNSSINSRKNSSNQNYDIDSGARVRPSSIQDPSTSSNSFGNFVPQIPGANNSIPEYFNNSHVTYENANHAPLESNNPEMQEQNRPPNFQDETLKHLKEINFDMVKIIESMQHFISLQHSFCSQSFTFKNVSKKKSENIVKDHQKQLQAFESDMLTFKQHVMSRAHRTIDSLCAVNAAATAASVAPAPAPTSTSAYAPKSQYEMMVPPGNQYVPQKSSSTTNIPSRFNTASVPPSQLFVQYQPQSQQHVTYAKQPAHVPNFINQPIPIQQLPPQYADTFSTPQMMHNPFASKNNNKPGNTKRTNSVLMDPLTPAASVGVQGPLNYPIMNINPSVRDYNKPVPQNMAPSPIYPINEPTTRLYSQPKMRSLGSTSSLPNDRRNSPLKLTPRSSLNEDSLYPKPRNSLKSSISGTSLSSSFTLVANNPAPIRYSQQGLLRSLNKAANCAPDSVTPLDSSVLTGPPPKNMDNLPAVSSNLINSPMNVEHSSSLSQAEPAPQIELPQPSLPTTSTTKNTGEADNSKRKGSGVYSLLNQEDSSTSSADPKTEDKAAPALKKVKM
Text: (§1) Other additional members of these signal transduction cascades are identified through a variety of standard techniques. First, enhancers and suppressors of phenotypes of mutant strains are isolated using standard techniques known to those skilled in the art (Ausubel, supra). Second, proteins which interact with pathway members are isolated using yeast two-hybrid methods (Fields and Song, Nature 1989, 340:245-246; Chien et al., Proc. Natl. Acad. Sci. USA 1991, 88:9578-9582; Brent and Finley, Annu. Rev. Genet. 1997, 31:663-704). In one example, proteins which specifically interact with an A kinase catalytic subunit Tpk2, and not with related proteins Tpk1 and Tpk3 were identified and shown to be important for pseudohyphal development. […] Similarly, haploid tpk2 mutants were defective for invasive growth and tpk3 mutants were hyperinvasive (FIG. 2A). tpk1 mutants were indistinguishable from wild-type strains as both haploids and diploids. The accentuated filamentation and invasion phenotypes of tpk3 mutants required a functional Tpk2 as tpk2 tpk3 mutants had the same phenotype as tpk2 single mutants. As Tpk2 appeared to be uniquely required for pseudohyphal growth, we used a two-hybrid screen to identify proteins that interact specifically with Tpk2. The intact open reading frame of TPK2 was fused to coding sequence for the Gal4 DNA binding domain and used to screen a library of yeast genomic fragments fused to coding sequence for the Gal4 transcriptional activation domain. Activation of the GAL4-ADE2 reporter, leading to adenine-independent growth of an ade-strain was taken as preliminary evidence for an interaction between the Gal4 DNA binding domain:Tpk2 fusion and the Tpk2 interacting protein fused to the Gal4 activation domain. Positive clones were then retested in the two-hybrid assay with Tpk1, Tpk2, Tpk3, or Dph1 fused to the Gal4 DNA binding domain. DPH1, a gene required for diphthamide biosynthesis, as used to control for interactions that were not specific to the PKA isoforms.

[2] = biological target: B2
Text: as §1

[3] = biological target: B1
Text: as §1

Binder	binding result [1]	binding result [2]	binding result [3]
B1	no binding	–	–
B2	no binding	–	–
B3	–	no binding	no binding
